Results as given in PMC11737852 (2025).

B1: Myc-USP5 [not stated] / Flag-IRF3 [not stated] (parent complex)
chain 1: MAELSEEALLSVLPTIRVPKAGDRVHKDECAFSFDTPESEGGLYICMNTFLGFGKQYVERHFNKTGQRVYLHLRRTRRPKEEDPATGTGDPPRKKPTRLAIGVEGGFDLSEEKFELDEDVKIVILPDYLEIARDGLGGLPDIVRDRVTSAVEALLSADSASRKQEVQAWDGEVRQVSKHAFSLKQLDNPARIPPCGWKCSKCDMRENLWLNLTDGSILCGRRYFDGSGGNNHAVEHYRETGYPLAVKLGTITPDGADVYSYDEDDMVLDPSLAEHLSHFGIDMLKMQKTDKTMTELEIDMNQRIGEWELIQESGVPLKPLFGPGYTGIRNLGNSCYLNSVVQVLFSIPDFQRKYVDKLEKIFQNAPTDPTQDFSTQVAKLGHGLLSGEYSKPVPESGDGERVPEQKEVQDGIAPRMFKALIGKGHPEFSTNRQQDAQEFFLHLINMVERNCRSSENPNEVFRFLVEEKIKCLATEKVKYTQRVDYIMQLPVPMDAALNKEELLEYEEKKRQAEEEKMALPELVRAQVPFSSCLEAYGAPEQVDDFWSTALQAKSVAVKTTRFASFPDYLVIQIKKFTFGLDWVPKKLDVSIEMPEELDISQLRGTGLQPGEEELPDIAPPLVTPDEPKGSLGFYGNEDEDSFCSPHFSSPTSPMLDESVIIQLVEMGFPMDACRKAVYYTGNSGAEAAMNWVMSHMDDPDFANPLILPGSSGPGSTSAAADPPPEDCVTTIVSMGFSRDQALKALRATNNSLERAVDWIFSHIDDLDAEAAMDISEGRSAADSISESVPVGPKVRDGPGKYQLFAFISHMGTSTMCGHYVCHIKKEGRWVIYNDQKVCASEKPPKDLGYIYFYQRVAS
chain 2: MGTPKPRILPWLVSQLDLGQLEGVAWVNKSRTRFRIPWKHGLRQDAQQEDFGIFQAWAEATGAYVPGRDKPDLPTWKRNFRSALNRKEGLRLAEDRSKDPHDPHKIYEFVNSGVGDFSQPDTSPDTNGGGSTSDTQEDILDELLGNMVLAPLPDPGPPSLAVAPEPCPQPLRSPSLDNPTPFPNLGPSENPLKRLLVPGEEWEFEVTAFYRGRQVFQQTISCPEGLRLVGSEVGDRTLPGWPVTLPDPGMSLTDRGVMSYVRHVLSCLGGGLALWRAGQWLWAQRLGHCHTYWAVSEELLPNSGHGPDGEVPKDKEGGVFDLGPFIVDLITFTEGSGRSPRYALWFCVGESWPQDQPWTKRLVMVKVVPTCLRALVEMARVGGASSLENTVDLHISNSHPLSLTSDQYKAYLQDLVEGMDFQGPGES

Variants of: B1
Assay: in situ PLA; HEK293T cells co-transfected for 24 h, then infected with SeV (0.1 MOI) for 6 h; parent: 12; read off a plot

**Q.** How did the response turn out when chain 1 C335A was run?
**A.** ~12 complex number/cell
